# According to patent US20240352477A1 (ACADEMIA SINICA, published 2024):
# B1: CIPK15-mCherry (Ubi:CIPK15-mCherry) (enzyme)
# chain: MESRGKILMERYELGRLLGKGTFGKVHYARNLESNQSVAIKMMDKQQILKVGLSEQIRREITTMRLVAHKNIVQLHEVMATRNKIYFVMEYVKGGELFEKVAKRGKLTEVVAHKYFQQLISAVDYCHSRGVYHRDLKPENLLLDENENLKVSDFGLSALSESKRQDGLLHTTCGTPAYVAPEVISKIGYDGAKSDIWSCGVILFVLVAGYLPFQGPNLMEMYRKIQHGEFRCPGWFSRKLQKLLYKIMDPNPSTRISIQKIKESTWFRKGPEENRILKERTLNENTTKNVAPVLGVRRKKNAHEDVKPMSVTNLNAFEIISFSKGFDLSGMFIVKEWRNEARFTSDKSASTIISKLEDVAKALNLRVRKKDNGVVKMQGRKEGRNGVLQFDIEIFEVTTSYHIIEMKQTSGDSLEYRQLLEEGIRPALKDIVLA
# notes: Expressed transiently in rice protoplasts; not shown: mCherry reporter (pUbi:ccdB-mCherry vector)
# B2: cYFP-CIPK15 (CaMV35S:cYFP-CIPK15) (enzyme)
# chain: B1 chain
# notes: BiFC construct in rice protoplasts; not shown: C-terminal half of YFP (cYFP, p35S:cYFP-ccdB vector)
# B3: VDAC1-GFP (Ubi:VDAC1-GFP) (other, rice, UniProt Q6K548 2-274, looked up)
# chain: VGPGLYPEIGKKARDLLYRDYQTDHKFTLTTYTSNGVAITATSTKKADLIFGEIQSQIKNKNITVDVKANSDSNVVTTVTVDELTPGLKSILSFAVPDQRSGKFELQYSHDYAGVSASIGLTASPVVNLSSVFGTKALAVGADVSLDTATGNLTKYNAGLSFSNDDLIASLNLNNKGDSLTASYYHIVNHSATAVGAELTHSFSSNENSLTFGTQHTLDPLTVVKARFNNSGKASALLQHEWRPKSVWTISAEVDTKAIDKSSKVGIAVALKP
# notes: Expressed transiently in rice protoplasts and pulled down with GFP-Trap; not shown: GFP reporter (pUbi:ccdB-GFP vector)
# Legend:
# HXK5-GFP (Ubi:HXK5-GFP) = target: T1, HXK5-GFP (Ubi:HXK5-GFP) (rice, UniProt Q5W676 1-507); assay: co-IP with RFP-Trap from co-transfected rice protoplasts, immunoblot
# T1 construct: Expressed transiently in rice protoplasts; not shown: GFP reporter (pUbi:ccdB-GFP vector)
# Description: (§1) FIGS. 13a to 13b. CIPK15 and HXK5/6 interact and localize at mitochondria under aerobic and hypoxic conditions. (FIG. 13a) Rice protoplasts were co-transfected with Ubi:CIPK15-mCherry and Ubi:HXK5-GFP, Ubi:HX6-GFP or Ubi:GFP (as negative control), before being cultured in medium containing 400 mM glucose with shaking (aerobic) for 12 h. Then, total proteins were extracted and pulled down using RFP trap®. Anti-RFP and anti-GFP antibodies were used to detect co-immunoprecipitated (co-IP) CIPK15-mCherry and HXK5-GFP or GFP, respectively. (FIG. 13b) Rice protoplasts were transfected with Ubi:CIPK15-mCherry, Ubi:HXK5-mCherry or Ubi:HXK6-mCherry and stained with the mitochondrial marker MitoTracker® Green FM, before being examined under confocal microscopy. T: Transmission image. Scale bar=[…]. […]
# (§2) To explore these latter interactions in vivo using co-IP assays, we co-transfected rice protoplasts with Ubi:CIPK15-mCherry and Ubi:HXK5-GFP, Ubi:HXK6-GFP or Ubi:GFP (negative control) constructs. […] Our anti-RFP antibodies detected CIPK15-mCherry proteins in all eluents of CIPK15-mCherry co-IP fractions, but anti-GFP antibodies detected HXK5-GFP and HXK6-GFP present in the CIPK15-mCherry complex (FIG. 13a).
# HXK6-GFP (Ubi:HXK6-GFP) = target: T2, HXK6-GFP (Ubi:HXK6-GFP) (rice, UniProt Q8LQ68 1-506); assay: as above
# T2 construct: Expressed transiently in rice protoplasts; also called Ubi:HX6-GFP; not shown: GFP reporter (pUbi:ccdB-GFP vector)
# Description: as §1, §2
# [1] = target: T3, HXK5-nYFP (CaMV35S:HXK5-nYFP) (rice, UniProt Q5W676 1-507); assay: bimolecular fluorescence complementation (BiFC) in rice protoplasts
# T3 construct: BiFC construct in rice protoplasts; not shown: N-terminal half of YFP (nYFP, p35S:ccdB-nYFP vector)
# Description: (§3) FIGS. 3a to 3g. HXK6 and VDAC1 interact with CIPK15 on mitochondria and suppress CIPK15-regulated promoters. (FIG. 3a) BiFC assay in which rice protoplasts were co-transfected with CaWV35S:cYFP-CIPK15 or CaWV-nYFP (negative control) and CaMV35S:HXK5/6-nYFP or CaMV35S:cYFP (negative control). (FIG. 3b, FIG. 3c, FIG. 3f) Rice protoplasts were transfected with plasmids, cultured in medium containing 400 mM glucose with shaking for 12 h, and then examined under confocal microscopy. Scale bar=[…]. C: cytoplasm; Mt: mitochondria. (FIG. 3b) Rice protoplasts were co-transfected with Ubi:CIPK15-mTagBFP and Ubi:HXK6-mCherry and stained with the mitochondrial marker MitoTracker® Green FM. (FIG. 3c) Rice protoplasts were co-transfected with Ubi:CIPK15-mCherry and Ubi:GFP, Ubi:HXK6-GFP, or Ubi:HXK6(Ri) constructs. (FIG. 3d, FIG. 3g) Rice protoplasts were co-transfected with effector and reporter plasmids, cultured in medium contained 400 mM glucose with shaking, and assayed for luciferase activity. (FIG. 3e) Rice protoplasts were co-transfected with Ubi:VDAC1-GFP, Ubi:CIPK15-HA and Ubi:HXK6-GFP or Ubi:HXK6-mCherry, cultured in medium containing 400 mM glucose with shaking for 12 h, and total proteins were extracted and pulled down using GFP trap®. Anti-GFP, anti-HA and anti-mRFP antibodies were used to detect HXK6-GFP or VDAC1-GFP, CIPK15-HA, and HXK6-mCherry, respectively. […]
# [2] = target: T4, HXK6-nYFP (CaMV35S:HXK6-nYFP) (rice, UniProt Q8LQ68 1-506); assay: as above
# T4 construct: BiFC construct in rice protoplasts; not shown: N-terminal half of YFP (nYFP, p35S:ccdB-nYFP vector)
# Description: as §3
# [3] = target: T5, HXK6-mCherry (Ubi:HXK6-mCherry) (rice, UniProt Q8LQ68 1-506); assay: co-IP with GFP-Trap from co-transfected rice protoplasts, immunoblot
# T5 construct: Expressed transiently in rice protoplasts; not shown: mCherry reporter (pUbi:ccdB-mCherry vector)
# Description: Samples were extracted from rice protoplasts in lysis buffer containing 150 mM NaCl, 0.5% NP4-0, 20 mM Tris-HCl (pH 7.5), and protease inhibitor (Roche) for 1 h at 4° C. and centrifuged at 13,000 rpm for 30 min at 4° C. Supernatants were transferred to new tubes and GFP- or RFP-conjugated proteins were pulled down with GFP-Trap®_MA beads or RFP-Trap®_MA beads. Precipitated proteins were subjected to immunoblot analysis using anti-RFP and anti-GFP antibodies.
# T3 sequence (Q5W676 whole entry): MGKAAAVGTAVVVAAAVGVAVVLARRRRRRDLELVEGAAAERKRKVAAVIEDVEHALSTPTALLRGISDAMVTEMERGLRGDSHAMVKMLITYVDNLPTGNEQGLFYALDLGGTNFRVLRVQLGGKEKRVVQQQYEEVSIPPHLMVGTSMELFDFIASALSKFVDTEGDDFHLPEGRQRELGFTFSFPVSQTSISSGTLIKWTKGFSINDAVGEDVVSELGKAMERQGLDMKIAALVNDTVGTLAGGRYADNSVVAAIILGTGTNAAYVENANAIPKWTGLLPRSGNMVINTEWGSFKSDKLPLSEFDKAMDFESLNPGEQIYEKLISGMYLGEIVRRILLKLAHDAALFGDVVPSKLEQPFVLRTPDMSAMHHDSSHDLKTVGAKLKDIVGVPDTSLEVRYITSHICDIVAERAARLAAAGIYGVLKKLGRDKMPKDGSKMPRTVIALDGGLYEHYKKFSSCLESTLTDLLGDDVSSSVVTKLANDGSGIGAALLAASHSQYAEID
# T1 sequence (Q5W676 whole entry): as above
# T2 sequence (Q8LQ68 whole entry): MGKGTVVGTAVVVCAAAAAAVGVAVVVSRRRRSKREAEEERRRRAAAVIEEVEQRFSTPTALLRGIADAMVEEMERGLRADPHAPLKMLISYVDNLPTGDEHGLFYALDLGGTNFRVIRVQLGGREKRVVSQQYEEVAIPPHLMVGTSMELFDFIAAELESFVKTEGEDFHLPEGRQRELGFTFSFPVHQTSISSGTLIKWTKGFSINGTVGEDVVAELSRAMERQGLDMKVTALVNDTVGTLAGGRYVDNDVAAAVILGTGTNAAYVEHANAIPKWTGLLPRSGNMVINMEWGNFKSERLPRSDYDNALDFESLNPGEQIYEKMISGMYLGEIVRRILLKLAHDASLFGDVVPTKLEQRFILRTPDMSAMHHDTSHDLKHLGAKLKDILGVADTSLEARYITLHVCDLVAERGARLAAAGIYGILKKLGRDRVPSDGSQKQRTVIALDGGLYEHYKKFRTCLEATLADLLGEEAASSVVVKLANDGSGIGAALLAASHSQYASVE
# T5 sequence (Q8LQ68 whole entry): as above
# T4 sequence (Q8LQ68 whole entry): as above
binder,measurement,setting,value
B1,binding result,HXK5-GFP (Ubi:HXK5-GFP),binds
same,binding result,HXK6-GFP (Ubi:HXK6-GFP),binds
B2,binding result,[1],binds
same,binding result,[2],binds
B3,binding result,[3],binds
